Consider three molecules from publication PMC10359602, “High fidelity DNA strand-separation is the major specificity determinant in DNA methyltransferase CcrM’s catalytic mechanism”.

Series [1] concerns the target T1, CcrM WT (Caulobacter crescentus, UniProt P0CAW2 1-358). As to the kind of experiment: equilibrium Trp fluorescence; 60 uM sinefungin; smaller change than dsDNA; Anisotropy: 10 nM FAM-DNA, 0-1000 nM protein, 30 uM SAH, 100 mM HEPES, 1 mM EDTA, 20 mM NaCl, pH 8, room temperature, 20 min; Trp fluorescence: same buffer plus 2 mM DTT, 500 nM protein, 60 uM sinefungin, 5 uM DNA. As to conditions: protein: recombinant; chain copies: 2; single strand.

Series [2] deals with T1, CcrM WT. Kind of series: fluorescence anisotropy; 30 uM SAH; Hill h = 2.1; apparent Kd; Anisotropy: 10 nM FAM-DNA, 0-1000 nM protein, 30 uM SAH, 100 mM HEPES, 1 mM EDTA, 20 mM NaCl, pH 8, room temperature, 20 min; Trp fluorescence: same buffer plus 2 mM DTT, 500 nM protein, 60 uM sinefungin, 5 uM DNA. As to conditions: protein: recombinant; chain copies: 2; label: 5' 6-FAM on strand 1; blunt.

The target of series [3] is T1, CcrM WT. As to the kind of experiment: fluorescence anisotropy; 30 uM SAH; Hill h = 2.5; apparent Kd; Anisotropy: 10 nM FAM-DNA, 0-1000 nM protein, 30 uM SAH, 100 mM HEPES, 1 mM EDTA, 20 mM NaCl, pH 8, room temperature, 20 min; Trp fluorescence: same buffer plus 2 mM DTT, 500 nM protein, 60 uM sinefungin, 5 uM DNA. To be noted: protein: recombinant; chain copies: 2; label: 5' 6-FAM on strand 1; blunt.

In another series the target is CcrM R350A (Caulobacter crescentus, UniProt P0CAW2 1-358, R350A). Kind of series: fluorescence anisotropy; 30 uM SAH; Hill h = 1.3; apparent Kd, above tested range 0-1000 nM; Anisotropy: 10 nM FAM-DNA, 0-1000 nM protein, 30 uM SAH, 100 mM HEPES, 1 mM EDTA, 20 mM NaCl, pH 8, room temperature, 20 min; Trp fluorescence: same buffer plus 2 mM DTT, 500 nM protein, 60 uM sinefungin, 5 uM DNA. As to conditions: protein: recombinant; chain copies: 2; label: 5' 6-FAM on strand 1; blunt.
Sequence of CcrM R350A (P0CAW2 whole entry R350A): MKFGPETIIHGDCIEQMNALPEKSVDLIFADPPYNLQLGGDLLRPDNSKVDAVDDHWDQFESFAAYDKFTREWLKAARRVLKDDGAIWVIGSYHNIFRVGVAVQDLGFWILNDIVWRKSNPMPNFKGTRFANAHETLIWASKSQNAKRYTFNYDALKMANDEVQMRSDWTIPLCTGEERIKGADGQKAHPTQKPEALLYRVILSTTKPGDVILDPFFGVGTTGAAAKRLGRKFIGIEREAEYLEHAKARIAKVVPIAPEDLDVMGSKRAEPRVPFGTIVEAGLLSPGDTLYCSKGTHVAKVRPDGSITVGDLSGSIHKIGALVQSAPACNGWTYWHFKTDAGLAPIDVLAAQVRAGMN

T1 sequence (P0CAW2 whole entry): as the sequence (P0CAW2 whole entry R350A) above, with A350R counted along it

Regarding TCACTGTACTCTGACTCGCCTGACATGAC (ssDNA) [cognate ssDNA], the binding result with CcrM WT [1] is “binds”.

B1: NC-FAM (dsDNA)
DNA 1: TCACTGTACTCTGACTGGCCTGACATGAC
DNA 2: GTCATGTCAGGCCAGTCAGAGTACAGTGA
modifications: N6-methyl-A at position 14 (5' to 3') of strand 2
As for B1, the Kd in the series with CcrM WT [2] is 135 ± 7.6 nM.

B2: C1-FAM (dsDNA)
DNA 1: TCACTGTACTCTGACTCGCCTGACATGAC
DNA 2: GTCATGTCAGGCGAGTCAGAGTACAGTGA
modifications: N6-methyl-A at position 14 (5' to 3') of strand 2 (hemimethylated)
Take B2: the Kd in the series with CcrM WT [3] is 150 ± 5.4 nM; with CcrM R350A, 2110 ± 193 nM.
